T1: Solute carrier family 22 member 1 (Mus musculus, UniProt O08966)
T1 sequence (O08966 whole entry): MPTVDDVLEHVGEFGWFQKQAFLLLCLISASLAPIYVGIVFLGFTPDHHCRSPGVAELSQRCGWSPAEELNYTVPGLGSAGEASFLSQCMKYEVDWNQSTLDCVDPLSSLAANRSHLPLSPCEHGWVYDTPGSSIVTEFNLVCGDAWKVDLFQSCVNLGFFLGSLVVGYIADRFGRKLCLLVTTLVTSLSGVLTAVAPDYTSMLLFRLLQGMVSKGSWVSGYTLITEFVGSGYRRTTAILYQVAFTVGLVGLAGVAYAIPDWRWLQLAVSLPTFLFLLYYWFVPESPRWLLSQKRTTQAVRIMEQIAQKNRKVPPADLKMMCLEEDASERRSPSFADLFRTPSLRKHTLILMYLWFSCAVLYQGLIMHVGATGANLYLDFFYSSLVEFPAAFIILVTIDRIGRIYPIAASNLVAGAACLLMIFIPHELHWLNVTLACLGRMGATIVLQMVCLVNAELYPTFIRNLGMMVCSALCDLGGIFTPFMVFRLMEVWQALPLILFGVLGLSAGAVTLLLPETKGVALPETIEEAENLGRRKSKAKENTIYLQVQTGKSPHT

B1: Solute carrier family 22 member 1 (Rattus norvegicus) (protein)
chain: MPTVDDVLEQVGEFGWFQKQAFLLLCLISASLAPIYVGIVFLGFTPGHYCQNPGVAELSQRCGWSQAEELNYTVPGLGPSDEASFLSQCMRYEVDWNQSTLDCVDPLSSLVANRSQLPLGPCEHGWVYDTPGSSIVTEFNLVCGDAWKVDLFQSCVNLGFFLGSLVVGYIADRFGRKLCLLVTTLVTSVSGVLTAVAPDYTSMLLFRLLQGMVSKGSWVSGYTLITEFVGSGYRRTTAILYQMAFTVGLVGLAGVAYAIPDWRWLQLAVSLPTFLFLLYYWFVPESPRWLLSQKRTTRAVRIMEQIAQKNGKVPPADLKMLCLEEDASEKRSPSFADLFRTPNLRKHTVILMYLWFSCAVLYQGLIMHVGATGANLYLDFFYSSLVEFPAAFIILVTIDRIGRIYPIAASNLVTGAACLLMIFIPHELHWLNVTLACLGRMGATIVLQMVCLVNAELYPTFIRNLGMMVCSALCDLGGIFTPFMVFRLMEVWQALPLILFGVLGLTAGAMTLLLPETKGVALPETIEEAENLGRRKSKAKENTIYLQVQTGKSSST

Columns and labels:
[1] = target: T1, Solute carrier family 22 member 1; assay: TP_TRANSPORTER: decrease in liver concentration in Oct1 -/- mouse; format: functional, organism-based; conditions: in vivo
[2] = target: T1, Solute carrier family 22 member 1; assay: TP_TRANSPORTER: decrease in small intestine concentration in Oct1 -/- mouse; format: functional, organism-based; conditions: in vivo
[3] = substrate: [H]/N=C(/N)N/C(=N/[H])NCCc1ccccc1; assay: (§1) TP_TRANSPORTER: uptake in OCT1-expressing CHO cells; format: functional, cell-based
[4] = substrate: CN(C)C(=N)N=C(N)N; assay: as §1; format: functional, cell-based
[5] = substrate: CCCCNC(=N)NC(=N)N; assay: cells, lysate or membranes named

Molecule	Activity [1]	Activity [2]	Km [3]	Km [4]	Km [5]
CN(C)C(=N)N=C(N)N [METFORMIN]	substrate [+]	substrate [+]	–	–	–
B1	–	–	15.6 µM	377 µM	48.8 µM

From ChEMBL document CHEMBL2073814, “Involvement of organic cation transporter 1 in hepatic and intestinal distribution of metformin” (J Pharmacol Exp Ther, 2002)
